Results on eight molecules are retold here after patent US20200354457A1 (Hoffmann-La Roche, published 2020).

Numbering of substitutions follows the chain as printed. Where “and” joins values, the source holds several entries; their conditions need not be identical. Equal entries are not always repeated.

A word on the EC50: it is the concentration at which the effect is half-maximal. In general, koff refers to a measure of how fast the partners let go of each other. In general, IC50 refers to the concentration that gives 50% inhibition. The Kd is the free concentration of one partner at which half of the binding sites on the other are occupied at equilibrium, for simple one-to-one binding. A high value points to weaker binding. Usually kon stands for a measure of how fast the partners come together. Low readings indicate slow association, high ones fast association. One may read the % Inhibition as the relative decrease from the control value, in per cent.

B1: bivalent P10C3 aVH-Fc (Fc fusion)
chain: EVQLVESGGGLVQPGGSLRLSCAASGFNIKDTCIGWVRRAPGKGTELVAEICTDAGYTRYADSVKGRFTISADTSKNTAYLQMNSLRAEDTAVYYCAASESPSGFRYWGQGTTVTVSSGGGGSGGGGSDKTHTCPPCPAPEAAGGPSVFLFPPKPKDTLMISRTPEVTCVVVDVSHEDPEVKFNWYVDGVEVHNAKTKPREEQYNSTYRVVSVLTVLHQDWLNGKEYKCKVSNKALGAPIEKTISKAKGQPREPQVYTLPPSRDELTKNQVSLTCLVKGFYPSDIAVEWESNGQPENNYKTTPPVLDSDGSFFLYSKLTVDKSRWQQGNVFSCSVMHEALHNHYTQKSLSLSPGK
B2: bivalent 9B4 aVH-Fc (Fc fusion)
chain: B1 chain with T53Q, A55I, S99V, S101V, P102A, S103E, G104Y, R106E
B3: bivalent P11E2 aVH-Fc (Fc fusion)
chain: B1 chain with T53D, A55I, A98S, S99Q, S101H, P102Q, S103W, G104S, R106K
B4: bivalent P11E9 aVH-Fc (Fc fusion)
chain: B1 chain with T53H, A55I, S99E, S101H, P102V, S103A, G104S, R106E
B5: bivalent 17D7 aVH-Fc (Fc fusion)
chain: B1 chain with A55I, S99G, S101G, P102S, R106H
B6: MCSP-specific disulfide-stabilized aVH clone 57.1 (VHH)
VHH: EVQLVESGGGLVQPGGSLRLSCAASGFNIKQNCIEWVRRAPGKGTELVANICHDIGSTRYADSVKGRFTISADTSKNTAYLQMNSLRAEDTAVYYCAAWEQKGFNYWGQGTTVTVSS
notes: Autonomous human VH domain purified from E. coli
B7: MCSP-specific disulfide-stabilized aVH clone 2 (VHH)
VHH: EVQLVESGGGLVQPGGSLRLSCAASSFNIKDTYIGWVRRAPGKGTELVASIDCIYGYTRYADSVKGRFTISCDTSKNTAYLQMNSLRAEDTAVYYCAAQGYRLHYWGQGTTVTVSS
notes: Autonomous human VH domain purified from E. coli by IMAC
B8: MCSP-specific disulfide-stabilized aVH clone 44 (VHH)
VHH: EVQLVESGGGLVQPGGSLRLSCAASGFNIKDGYIDWVRRAPGKGTELVASIECTNGRATRYADSVKGRFTISCDTSKNTAYLQMNSLRAEDTAVYYCAYAGIGYYFYYWGQGTTVTVSS
notes: as for B6

One assay deals with Lag3 on Lag3+ NFAT Jurkat effector cells (Promega #CS194801). The experiment in a line: cell-based or functional assay.
Consider B1, for which the “EC50 of restoration of the NFAT luciferase signal (NFAT Lag3 reporter assay: Lag3+ Jurkat, Raji cells, SED)” value was 3.9 µg/mL.

Another assay concerns the target T1, murine LAG3-Fc antigen (R&D Systems, 3328-L3-050) (murine, UniProt Q61790 24-442).
T1 construct: Bought reagent
T1 sequence (looked up): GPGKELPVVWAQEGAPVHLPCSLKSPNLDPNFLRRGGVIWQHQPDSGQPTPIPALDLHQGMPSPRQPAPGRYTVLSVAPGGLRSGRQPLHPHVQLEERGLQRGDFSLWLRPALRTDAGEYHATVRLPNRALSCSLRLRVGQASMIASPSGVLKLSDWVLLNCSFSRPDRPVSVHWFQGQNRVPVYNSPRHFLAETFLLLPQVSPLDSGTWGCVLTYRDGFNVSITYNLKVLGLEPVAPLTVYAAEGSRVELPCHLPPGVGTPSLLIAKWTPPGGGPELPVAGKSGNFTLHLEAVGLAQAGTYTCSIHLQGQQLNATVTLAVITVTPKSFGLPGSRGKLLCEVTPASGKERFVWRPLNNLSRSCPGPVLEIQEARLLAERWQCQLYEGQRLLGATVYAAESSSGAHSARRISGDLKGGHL
The experiment in a line: ELISA using murine LAG3-Fc antigen.
Turning to B2, the binding result is “no binding”.
Same read-out and setting: the entry for B1 is “no binding”.
On the same count and under the same terms, the entry for B3 is “no binding”; for B4 it is “no binding”; for B5 it is “no binding”.

The target of a further assay is T2, human LAG3 on recombinant CHO cells (human, UniProt P18627 23-525).
T2 construct: whole, on cells; also called Lag3 cells; recombinant CHO cells expressing Lag3
T2 sequence (looked up): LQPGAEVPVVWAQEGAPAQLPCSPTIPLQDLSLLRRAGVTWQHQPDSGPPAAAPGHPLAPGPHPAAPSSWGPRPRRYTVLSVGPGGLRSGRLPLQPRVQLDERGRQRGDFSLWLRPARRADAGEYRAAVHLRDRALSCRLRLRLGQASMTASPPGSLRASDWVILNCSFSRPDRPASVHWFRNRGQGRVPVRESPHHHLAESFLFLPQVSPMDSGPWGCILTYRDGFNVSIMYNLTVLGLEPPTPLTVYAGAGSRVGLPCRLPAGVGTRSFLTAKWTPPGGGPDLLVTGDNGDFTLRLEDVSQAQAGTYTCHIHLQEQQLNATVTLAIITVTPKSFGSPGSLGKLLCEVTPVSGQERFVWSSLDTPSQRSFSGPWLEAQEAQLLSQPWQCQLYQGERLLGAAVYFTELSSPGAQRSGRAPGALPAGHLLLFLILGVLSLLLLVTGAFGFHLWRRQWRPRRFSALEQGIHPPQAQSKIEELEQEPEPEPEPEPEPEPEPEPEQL
The experiment in a line: cell ELISA on CHO cells expressing human LAG3.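 Further: bivalent Fc-format binders titrated in threefold steps from 6 µg/mL, incubated with the cells 2 h at 4 °C, bound antibody detected by HRP-coupled anti-human IgG.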 In general terms: ELISA stands for enzyme-linked immunosorbent assay.
Regarding B2, the EC50 was 0.0288 µg/mL and 0.4 nM; the OD max was 1.3 OD.
In the case of B1, the EC50 was 0.0735 µg/mL and 1 nM; the OD max came out at 1.2 OD.
For B3, the EC50 is 0.0603 µg/mL and 0.8 nM; the OD max turned out to be 1.2 OD.
For the molecule B4, the EC50 was 0.0375 µg/mL and 0.5 nM; the OD max amounted to 1.3 OD.
As for B5, the concentration for a half-maximal effect (EC50) was 0.0354 µg/mL and 0.5 nM; the OD max came out at 1.4 OD.

The next assay has as its target T3, recombinant human LAG3 Fc Chimera Protein (R&D Systems, 2319-L3) (human, UniProt P18627 23-450).
T3 construct: Bought reagent
T3 sequence (looked up): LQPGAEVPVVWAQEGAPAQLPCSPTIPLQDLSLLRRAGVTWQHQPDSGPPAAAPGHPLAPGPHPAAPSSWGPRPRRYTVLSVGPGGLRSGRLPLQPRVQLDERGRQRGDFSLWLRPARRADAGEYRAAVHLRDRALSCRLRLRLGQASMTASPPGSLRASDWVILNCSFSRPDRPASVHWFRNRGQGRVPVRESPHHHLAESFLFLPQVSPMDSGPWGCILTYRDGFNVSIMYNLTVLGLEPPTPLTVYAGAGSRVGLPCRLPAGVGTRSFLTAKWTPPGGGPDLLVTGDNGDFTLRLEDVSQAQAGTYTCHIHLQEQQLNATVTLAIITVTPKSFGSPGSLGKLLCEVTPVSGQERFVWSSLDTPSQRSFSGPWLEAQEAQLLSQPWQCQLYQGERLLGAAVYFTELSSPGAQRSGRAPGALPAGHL
The experiment in a line: ELISA, plate coated with human LAG3 Fc chimera.
As for B2, the EC50 was 0.0194 µg/mL and 0.3 nM; the OD max turned out to be 1.2 OD.
B1: the EC50 is 0.123 µg/mL and 1.6 nM; the OD max turned out to be 0.8 OD.
Turning to B3, the half-maximal effective concentration (EC50) is 0.143 µg/mL and 1.9 nM; the OD max worked out at 1.1 OD.
As to B4, the EC50 is 0.121 µg/mL and 1.6 nM; the OD max is 1.9 OD.
As to B5, the EC50 was 0.0145 µg/mL and 0.2 nM; the OD max is 1.2 OD.

Another assay concerns the target T4, cynomolgus LAG3 on transiently transfected HEK293F cells (cynomolgus).
T4 construct: whole, on cells; also called cyno LAG3; cynomolgus Lag3-positive HEK cells
The assay can be described thus: flow cytometry on HEK293F cells transfected with cyno LAG3, 10 µg/ml. On the technique in general: In flow cytometry, cells or beads pass a laser one at a time.
Consider B2, for which the “LAG3 positive cells (%)” value worked out at 68.8% and the “Signal intensity (Geo Mean)” value is 2060 Geo Mean.
As to B5, the “LAG3 positive cells (%)” value came to 63.6% and the “Signal intensity (Geo Mean)” value came to 1980 Geo Mean.

The target in the next assay is T3, recombinant human LAG3 Fc Chimera …. The assay can be described thus: SPR (Biacore), aVH-Fc captured by anti-human Fc, human LAG-3 Fc chimera as analyte, 25 C. A general note: Surface plasmon resonance follows binding to a sensor surface in real time, without labels.
Consider B2, for which the koff turned out to be 0.00019 s⁻¹ and the t1/2 was 1.02 h.
On the same counts, the results for B1 are 8.9e-05 s⁻¹ and 2.17 h.
For B3, the koff was 6.8e-05 s⁻¹ and the t1/2 is 2.83 h.
As to B4, the koff is 2.4e-05 s⁻¹ and the t1/2 turned out to be 8.16 h.
On the same counts, the results for B5 are 0.00018 s⁻¹ and 1.1 h.

Another assay has as its target T5, soluble human Lag3-IgG1-Fc with biotinylated C-terminal Avi-tag (human, biotin on the C-terminal Avi-tag).
T5 construct: also called LAG3-Fc-avi; biotinylated LAG3-Fc antigen
The experiment in a line: A375 MHCII competition ELISA, biotinylated Lag3 250 ng/ml; competitor MHCII on A375 cells.
Regarding B2, the IC50 is 0.0762 µg/mL and 1 nM.
On the same count and under the same terms, for B1 the value was 0.242 µg/mL and 3.2 nM; for B3, 0.155 µg/mL and 2.1 nM.
Regarding B4, the IC50 was 0.086 µg/mL and 1.1 nM.
For the molecule B5, the half-maximal inhibitory concentration (IC50) is 0.104 µg/mL and 1.4 nM.

Another assay addresses T6, biotinylated MCSP antigen (amino acids 1553 to 2184 of matured melanoma-associated chondroitin sulfate … (Homo sapiens (Human), UniProt Q6UVK1 1582-2213, limits assumed, biotin on the C-terminal avi-tag)).
T6 construct: The entry may include the leader; also called recombinant MCSP
T6 sequence: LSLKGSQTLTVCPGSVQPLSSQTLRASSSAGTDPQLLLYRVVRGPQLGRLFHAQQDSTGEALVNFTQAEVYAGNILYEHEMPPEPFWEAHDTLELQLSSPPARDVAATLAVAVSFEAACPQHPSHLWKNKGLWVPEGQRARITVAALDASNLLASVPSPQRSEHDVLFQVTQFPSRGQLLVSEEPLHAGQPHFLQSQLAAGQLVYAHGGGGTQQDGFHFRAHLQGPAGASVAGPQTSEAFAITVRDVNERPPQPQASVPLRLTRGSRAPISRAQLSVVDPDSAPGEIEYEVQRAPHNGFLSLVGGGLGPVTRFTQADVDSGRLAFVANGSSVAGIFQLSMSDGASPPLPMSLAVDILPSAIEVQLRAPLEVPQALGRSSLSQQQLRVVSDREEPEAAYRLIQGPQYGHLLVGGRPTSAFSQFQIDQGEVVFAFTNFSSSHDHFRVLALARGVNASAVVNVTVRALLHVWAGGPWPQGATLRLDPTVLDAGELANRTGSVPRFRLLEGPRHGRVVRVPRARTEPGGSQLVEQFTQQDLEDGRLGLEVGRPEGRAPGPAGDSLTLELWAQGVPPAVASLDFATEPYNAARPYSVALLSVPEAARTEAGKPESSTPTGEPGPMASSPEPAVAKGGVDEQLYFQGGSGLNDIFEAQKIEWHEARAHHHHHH
The assay can be described thus: SPR (ProteOn XPR36), biotinylated MCSP captured on NLC chip, purified aVH as analyte, 25 C.
For B6, the Kd turned out to be 48 nM, the koff is 0.0142 s⁻¹ and the kon was found to be 295000 M⁻¹ s⁻¹.
On the same counts, the results for B7 are 8 nM, 0.00339 s⁻¹ and 458000 M⁻¹ s⁻¹.
Molecule B8 yielded a Kd of 109 nM, a koff of 0.0163 s⁻¹ and a kon of 150000 M⁻¹ s⁻¹.

In the next assay the target is T5, soluble human Lag3-IgG1-Fc with …. The assay can be described thus: A375 MHCII competition ELISA at 3 µg/ml, biotinylated Lag3 250 ng/ml; competitor MHCII on A375 cells.
As for B2, the “% Inhibition” value came to 95.5%.
As for B1, the “% Inhibition” value was determined as 84.9%.
Turning to B3, the “% Inhibition” value is 91%.
The same measure, in the same setting: for B4 the value was 97.2%.
Same read-out and setting: the figure for B5 is 91.7%.
